One molecule from patent US20200291123A1 (PB IMMUNE THERAPEUTICS, published 2020) can be followed below.

In the assay the target is T1, His-tagged CD40 antigen (human, UniProt P25942 21-193, limits assumed).
T1 construct: Captured on an anti-His antibody on a CM5 chip; not shown: His tag
Nature of the assay: SPR, Biacore T200, CM5 chip, His-tagged CD40 captured on anti-His antibody. An excerpt:
That is, the anti-His antibody was immobilized on the surface of the CM5 sensor chip by an amine coupling method. His-tagged CD40 antigen was captured by reacting the His-tagged CD40 antigen with the antibody and then the captured antigen was reacted with sensor chip coated with an anti-his antibody. The results were read using biocore T200 (GE Healthcare).
On the technique in general: Surface plasmon resonance follows binding to a sensor surface in real time, without labels.

T1 sequence (P25942 21-193 limits assumed): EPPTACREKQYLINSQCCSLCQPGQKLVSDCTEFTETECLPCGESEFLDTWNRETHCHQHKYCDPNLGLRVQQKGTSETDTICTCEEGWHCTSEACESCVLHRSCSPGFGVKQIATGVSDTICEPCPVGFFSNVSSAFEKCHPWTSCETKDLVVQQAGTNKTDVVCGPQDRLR

B1: anti-CD40 antibody RM8G-1 (antibody, V domains shown)
VH: LVQLKESGPGLVAPSQSLSITCTVSGFSLTDYGVGWIRQPPGKDLEWLGVMWGGGRTYYNAPLKSRLSISKDNSKSQVFLKMNSLQTDDTAMYYCVKTGQDYAVDYWGQGTSVTVSS
VL: DIVLTQSPASLAVSLGQRATISCRASKSVSTSAYSYMHWYQQKPGQPPKLLIYLASNLESGVPARFSGSGSGTDFTLNIHPVEEEDAATYYCQHSWDLPYTFGGGTKLEIK
notes: Mouse monoclonal antibody from hybridoma RM8G1 (KCLRF-BP-00336); also called RM RM8G-1; anti-CD40 RM8G-1
B1 yielded a dissociation constant (Kd) of 0.494 nM, a dissociation rate constant (koff) of 0.000234 s⁻¹ and a kon of 474000 M⁻¹ s⁻¹.

A word on the Kd: it is the equilibrium constant for the complex coming apart. As usually defined, the koff is the first-order rate constant of dissociation. Broadly, the kon is the rate constant with which the complex forms. Read a low kon as slower complex formation.
